Consider 2 molecules from KR20150077887A (dated 2015).

The target of this test is T1, NRS natively expressed in human cells (HeLa cell lysate) (human, UniProt O43776 1-548).
T1 construct: mature; Target of the western blot; also called human 세포에서 원래 발현된 NRS
T1 sequence (looked up): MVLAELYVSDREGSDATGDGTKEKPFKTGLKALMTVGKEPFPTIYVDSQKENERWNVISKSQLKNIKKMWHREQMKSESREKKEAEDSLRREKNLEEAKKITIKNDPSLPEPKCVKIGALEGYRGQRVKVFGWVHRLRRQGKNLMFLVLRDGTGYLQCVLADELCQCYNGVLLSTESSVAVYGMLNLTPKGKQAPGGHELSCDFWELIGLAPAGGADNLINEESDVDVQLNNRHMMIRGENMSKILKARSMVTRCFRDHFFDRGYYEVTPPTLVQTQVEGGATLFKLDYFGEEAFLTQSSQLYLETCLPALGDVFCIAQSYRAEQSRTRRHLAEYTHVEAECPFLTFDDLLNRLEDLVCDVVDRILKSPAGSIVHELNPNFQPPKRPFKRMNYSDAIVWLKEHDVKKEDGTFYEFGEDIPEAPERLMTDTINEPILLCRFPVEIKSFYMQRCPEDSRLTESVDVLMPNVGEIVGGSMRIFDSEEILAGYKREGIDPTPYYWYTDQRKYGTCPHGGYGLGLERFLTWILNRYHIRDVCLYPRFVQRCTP
The test can be described thus: western blot on HeLa cell lysate with periplasmic scFv (clones from phage panning on NRS), anti-HA-HRP detection.

B1: SEQ ID NO 70 (scFv)
scFv: EVQLLESGGGLVQTGGSLRLSCAASGFTFSDYAMSWVRQAPGKGLEWVSGISYSGGSTYYADSVKGRFTISRDNSKNTLYLQMNSLRAEDTAVYYCAKNSRHFDYWGQGTLVTVSSGGGGSGGGGSGGGGSQSVLTQPPSASGTPGQRVTISCSGSSSNIGSNDVTWYQQLPGTAPKLLIYSNSHRPSGVPDRFSGSKSGTSASLAISGLRSEDEADYYCGAWDDSLNGYVFGGGTKLTVL
notes: It is probably the same molecule as one of Biocon-N1 to N5
As to B1, the binding result is “binds”.

B2: SEQ ID NO 42 (scFv)
scFv: EVQLLESGGGLVQPGGSLRLSCAASGFTFSNYSMSWVRQAPGKGLEWVSVISPGSGSKYYADSVKGRFTISRDNSKNTLYLQMNSLRAEDTAVYYCARTATIFDYWGQGTLVTVSSGGGGSGGGGSGGGGSQSVLTQPPSASGTPGQRVTISCTGSSSNIGSNYVSWYQQLPGTAPKLLIYADSQRPSGVPDRFSGSKSGTSASLAISGLRSEDEADYYCGTWDDSLSAYVFGGGTKLTVL
notes: as for B1
Turning to B2, the binding result was “binds”.
